The source of these data is US20240076370A1 (Memorial Sloan Kettering, published 2024).

B1: ET150-8 mIgG1 (antibody, V domains shown)
VH: QVQLVESGGGLVHPGGSLRLSCAASGFTFRSHSMNWVRQAPGKGLEWVSSISSDSTYTYYADSVKGRFTISRDNAKNSLYLQMNSLRAEDTAVYYCARSGGQWKYYDYWGQGTLVTVSS
VL: SSELTQDPAVSVALGQTVRITCQGDSLRSYYASWYQQKPGQAPVLVIYGKNNRPSGIPDRFSGSSSGNTASLTITGAQAEDEADYYCNSRDSSGNPPVVFGGGTKLTVLG
notes: also called ET150-158
B2: ET150-5 mIgG1 (antibody, V domains shown)
VH: EVQLVESGGGLVKPGGSLRLSCAASGFTFSDYYMSWIRQAPGKGLEWVSYISSSGSTIYYADSVKGRFTISRDNAKNSLYLQMNSLRAEDTAVYYCARGYGKAYDQWGQGTLVTVSS
VL: QSVLTQPPSASGTPGQRVTISCSGSRSNVGGNYVFWYQQVPGATPKLLIYRSNQRPSGVPDRFAGSKSGSSASLAISGLRSEDEADYYCATWDDSLSGFVFGTGTKVTVLG
notes: also called ET150-155
B3: ET150-18 mIgG1 (antibody, V domains shown)
VH: EVQLVESGGGLIQPGGSLRLSCAASGFTFSNYAMNWVRQAPGKGLEWVSTINGRGSSTIYADSVKGRFTISRDNSKNTLYLQMNSLRAEDTATYYCARYISRGLGDSWGQGTLVTV
VL: QSVVTQPPSMSAAPGQQVTISCSGGNSNIERNYVSWYLQLPGTAPKLVIFDNDRRPSGIPDRFSGSKSGTSATLGITGLQTGDEADYYCGTWDSSLRGWVFGGGTKLTVLG
notes: also called ET150-168
B4: ET150-2 mIgG1 (antibody, V domains shown)
VH: QMQLVQSGAEVKKPGASVKVSCKASGYTFNRYAITWVRQAPGQGLEWMGWISAYNGNSHYAQKLQGRVTMTTDTSTGTAYMELRRLRSDDTAVYYCARMAYDSWGQGTLVTVSS
VL: QSVLTQPASVSGSPGQSLTISCTGTSNDVGAYKYVSWYQQYPGKAPKLILYDVFKRPSGVSNRFSGSKSDNTASLTISGLQAEDEADYYCFSLTSSNTYVFGTGTKVTVLG
notes: also called ET150-152
B5: ET150-151 scFv (scFv)
scFv: QSVVTQPASVSGSPGQSITISCTGTSSDVGGYNYVSWYQQHPGKAPKLMIYDVSKRPSGVSNRFSGSKSGNTASLTISGLQAEDEADYYCSSYTSSSTLVFGGGTKLTVLGSRGGGGSGGGGSGGGGSLEMAEVQLVESGGAFVQPGGSLRLSCAASGFTFSSYAMTWVRQAPGKGLEWVSTISGRGRSTFYADSVKGRFTISRDNSKNTLYLQMNSLRAEDTAVYYCARYYHAGAFDLWGQGTLVTVSS
notes: also called ET150-1 scFv
B6: ET150-168 scFv (scFv)
scFv: QSVVTQPPSMSAAPGQQVTISCSGGNSNIERNYVSWYLQLPGTAPKLVIFDNDRRPSGIPDRFSGSKSGTSATLGITGLQTGDEADYYCGTWDSSLRGWVFGGGTKLTVLGSRGGGGSGGGGSGGGGSLEMAEVQLVESGGGLIQPGGSLRLSCAASGFTFSNYAMNWVRQAPGKGLEWVSTINGRGSSTIYADSVKGRFTISRDNSKNTLYLQMNSLRAEDTATYYCARYISRGLGDSWGQGTLVTV
notes: also called ET150-18 scFv
B7: ET150-158 scFv (scFv)
scFv: SSELTQDPAVSVALGQTVRITCQGDSLRSYYASWYQQKPGQAPVLVIYGKNNRPSGIPDRFSGSSSGNTASLTITGAQAEDEADYYCNSRDSSGNPPVVFGGGTKLTVLGSRGGGGSGGGGSGGGGSLEMAQVQLVESGGGLVHPGGSLRLSCAASGFTFRSHSMNWVRQAPGKGLEWVSSISSDSTYTYYADSVKGRFTISRDNAKNSLYLQMNSLRAEDTAVYYCARSGGQWKYYDYWGQGTLVTVSS
notes: also called ET150-8 scFv
B8: ET150-152 scFv (scFv)
scFv: QSVLTQPASVSGSPGQSLTISCTGTSNDVGAYKYVSWYQQYPGKAPKLILYDVFKRPSGVSNRFSGSKSDNTASLTISGLQAEDEADYYCFSLTSSNTYVFGTGTKVTVLGSRGGGGSGGGGSGGGGSLEMAQMQLVQSGAEVKKPGASVKVSCKASGYTFNRYAITWVRQAPGQGLEWMGWISAYNGNSHYAQKLQGRVTMTTDTSTGTAYMELRRLRSDDTAVYYCARMAYDSWGQGTLVTVSS
notes: also called ET150-2 scFv
B9: ET150-155 scFv (scFv)
scFv: QSVLTQPPSASGTPGQRVTISCSGSRSNVGGNYVFWYQQVPGATPKLLIYRSNQRPSGVPDRFAGSKSGSSASLAISGLRSEDEADYYCATWDDSLSGFVFGTGTKVTVLGSRGGGGSGGGGSGGGGSLEMAEVQLVESGGGLVKPGGSLRLSCAASGFTFSDYYMSWIRQAPGKGLEWVSYISSSGSTIYYADSVKGRFTISRDNAKNSLYLQMNSLRAEDTAVYYCARGYGKAYDQWGQGTLVTVSS
notes: also called ET150-5 scFv
B10: ET150-157 scFv (scFv)
scFv: SYELTQPPSASGTPGQRVTISCSGSSSNIGSNYVSWYQQLPGTAPKLLIYRNNQRPSGVPDRFSGSKSGTSASLAISGLRSEDEADYYCAAWDDSLSGVVFGGGTKLTVLGSRGGGGSGGGGSGGGGSLEMAEVQLVQSGAEVKKPGSSVKVSCKASGGTFSSYAISWVRQAPGQGLEWMGGIIPIFGTAKYAQKFQGRVTITADESTSTAYMELSSLRSEDTAVYYCARSHVAWSLLDYWGQGTLVTVSS
notes: also called ET150-7 scFv
B11: ET150-159 scFv (scFv)
scFv: QSVLTQPPSASGTPGQRVTISCSGSSSNIGSNYVYWYQQLPGTAPKLLIYRNNQRPSGVPDRFSGSKSGTSASLAISGLRSEDEADYYCAAWDDSLSGWVFGGGTKLTVLGSRGGGGSGGGGSGGGGSLEMAQVQLVQSGAEVKKPGSSVKVSCKASGGTFSSYAISWVRQAPGQGLEWMGWMNPNSGNTGYAQKFQGRVTMTRNTSISTAYMELSSLRSEDTAVYYCARYQSYKGSQSDSWGQGTLVTVSS
notes: also called ET150-9 scFv
B12: ET150-156 scFv (scFv)
scFv: QSALTQPASVSGSPGQSITISCTGTSRDVGGYNYVSWYQQYPGKAPKLMIYEVSKRPSGVSNRFSGSKSGNTASLTISGLQAEDEADYYCSSYTSSSTLDFGTGTKVTVLGSRGGGGSGGGGSGGGGSLEMAQVQLVQSGAEVKQPGASVKVSCQASGYTFTTYYMHWVRQAPGQGLEWMGIINPNGGGTFYAQKFQDRVTMTRDTSTGTVYMELSSLRSDDTAVYYCARGHKVYKSHPTGGYDRWGQGTLVTVSS
notes: also called ET150-6 scFv
B13: ET150-154 scFv (scFv)
scFv: QAVLTQPPSASGTPGQRVTISCSGSSSNIGSNYVYWYQQLPGTAPKLLIYRNNQRPSGVPDRFSGSKSGTSASLAISGLRSEDEADYYCAAWDDSLSGYVFGTGTKVTVLGSRGGGGSGGGGSGGGGSLEMAQVQLVQSGAEVQRPGASVRVSCKAIAYTFTDYYIHWVRQAPGQGPEWMGWINPKSGRTQYAPKFQDRVTLARETPISTASMELRGLTSDDTAVYYCARVYGYSRWSGFDLWGQGTLVTVSS
notes: also called ET150-4 scFv

For one test, the target named is T1, human G-protein coupled receptor family C group 5 member D (GPRC5D) (human, UniProt Q9NZD1 1-345).
T1 construct: Overexpressed on 3T3 cells in the FACS assays; also called human GPRC5D; 3T3-GPRC5D
T1 sequence (Q9NZD1 whole entry): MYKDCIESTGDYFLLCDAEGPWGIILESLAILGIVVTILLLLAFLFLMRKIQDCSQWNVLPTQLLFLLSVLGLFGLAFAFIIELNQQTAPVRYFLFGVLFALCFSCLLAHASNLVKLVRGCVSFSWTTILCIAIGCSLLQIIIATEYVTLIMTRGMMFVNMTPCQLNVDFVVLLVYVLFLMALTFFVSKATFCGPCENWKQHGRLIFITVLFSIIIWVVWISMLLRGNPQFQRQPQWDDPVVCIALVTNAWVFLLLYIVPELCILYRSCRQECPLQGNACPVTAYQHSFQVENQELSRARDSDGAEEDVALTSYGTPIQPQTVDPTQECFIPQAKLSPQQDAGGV
The test can be described thus: flow cytometry (MFI, FL2) on 3T3-GPRC5D and parental 3T3 cells at 10 and 1 µg/mL, PE-labelled anti-mouse IgG secondary antibody. Here is the method: Each antibody (ET150-1, ET150-2, ET150-5, ET150-8, ET150-18) was incubated with 3T3 or 3T3-GPRC5D cells at 10 or 1 μg/mL, then with anti-M13 mouse antibody. Finally PE-labeled anti-mouse IgG 2nd antibody was added to the reaction. The binding was measured by FACS and expressed as mean fluorescence intensity (MFI) (FIG. 13). Cells incubated with 2nd antibody alone, ET901 mIgG1 isotype control and cells only were used as negative controls.
For orientation: In flow cytometry, cells or beads pass a laser one at a time.
In the case of B1, the binding result is “binds”. Take B2: the binding result is listed as “binds”. B3: the binding result is on record as “binds”. B4: the binding result was “binds”.

Another test deals with T1, human G-protein coupled receptor family …. Put plainly: flow cytometry: phage clone on 3T3-GPRC5D cells (printed 3T3-ET150), anti-M13 mouse antibody, then APC-labelled anti-mouse IgG; control without phage (A04 anti-M13+ APC mIgG) median 10.9. Here is the method:
FACS Screening. […] Phage clones were incubated with 3T3-GPRC5D cell line, then with anti-M13 mouse antibody. Finally APC-labeled anti-mouse IgG 2nd antibody was added to the reaction after washing again. The binding was measured by FACS and expressed as mean fluorescence intensity (MFI). Cells incubated with M13 K07 helper phage and cells only were used as negative controls.
On to B5, for which the “Median, RED2-HLin” value amounted to 3230.

As to B6, the “Median, RED2-HLin” value came out at 3180.

For B7, the “Median, RED2-HLin” value is 3110. On the same count and under the same terms, in the case of B8 it was 2400; in that of B9, 3220.

The next test has the same target. Put plainly: FACS, scFv phage clones on 3T3 cells overexpressing GPRC5D.
On to B10, for which the binding result is recorded as “binds”. B11: the binding result is given as “binds”.

In the case of B12, the binding result is recorded as “binds”. As for B13, the binding result is “binds”.
